B1: YGL099W (protein, UniProt P53145 1-640, looked up)
Large subunit GTPase 1: MPPKEAPKKWKAPKGPKPTHRKNKNKLELGRAIKYARQKENAIEYLPDGEMRFTTDKHEANWVKLRSVTQESALDEFLSTAALADKDFTADRHSNVKIIRMDSGNDSATSQGFSMTNEQRGNLNAKQRALAKDLIVPRRPEWNEGMSKFQLDRQEKEAFLEWRRKLAHLQESNEDLLLTPFERNIEVWKQLWRVVERSDLVVQIVDARNPLLFRSVDLERYVKESDDRKANLLLVNKADLLTKKQRIAWAKYFISKNISFTFYSALRANQLLEKQKEMGEDYREQDFEEADKEGFDADEKVMEKVKILSIDQLEELFLSKAPNEPLLPPLPGQPPLINIGLVGYPNVGKSSTINSLVGAKKVSVSSTPGKTKHFQTIKLSDSVMLCDCPGLVFPNFAYNKGELVCNGVLPIDQLRDYIGPAGLVAERIPKYYIEAIYGIHIQTKSRDEGGNGDIPTAQELLVAYARARGYMTQGYGSADEPRASRYILKDYVNGKLLYVNPPPHLEDDTPYTREECEEFNKDLYVFDRLPDTRKEQVQNAAKAKGIDIVDLARDLNQLTFSAHTGGDTQKEAKSVTHGGKQAALYNAAEDLDRDFFKMNNVEGRLSTPFHKVQNSSAGKRHNKKNKSKNAKSKVFSIENN
B2: YOR284W (protein, UniProt Q12134 1-243, looked up)
Protein HUA2: MQQTKFGKMYLDHDSVVEYSEDEIVEADRITLGYKKRLSMIENQMRHLLEDFSLDVQQIEPILADLQKYYDAFLQLLQKRNKSLQCKRSTHQPVPSPMNSQTSTNAKVNLSGKLMKFQLNSVQKFDEENILRILQNKIEFEHYFQIDKGKKQKVLLLAVYQCLNGPTRLHKVLNIEGIIHNNSIRTILGKQVSSSKWTVFLYDVKLVLLAHRQDVPNLETSKMIVRYGDLFPCALYFKDHTAY
B3: YMR216C (protein, UniProt Q03656 1-742, looked up)
Serine/threonine-protein …: MGSSINYPGFVTKSAHLADTSTDASISCEEATSSQEAKKNFFQRDYNMMKKAPAPTKSKLSLALQTSKSSSSANGTVQEDTSSKTEDFSTKSIKKKPDSGVESHVSIQSDSGPQSDSDLDSDSSISSCDERNEESLKDYRPGGYHPAFKGEPYKDARYILVRKLGWGHFSTVWLAKDMVNNTHVAMKIVRGDKVYTEAAEDEIKLLQRVNDADNTKEDSMGANHILKLLDHFNHKGPNGVHVVMVFEVLGENLLALIKKYEHRGIPLIYVKQISKQLLLGLDYMHRRCGIIHTDIKPENVLMEIGDVEGIVQMVEALDKQKREAKRLQRHVSRSSDITANDSSDEKWAECQTSMPCGSSSNSKSRSIEKDLSKRCFRRPRRHTIITGSQPLPSPISSSNFFEMRAHFCGSSHNSFSSVSGNRNIPSSINNNSINNGIGIKNSNNSFLNSVPHSVTRMFINEDSNDNNNNDNSKNKNNNNNNSNNNNNEDIMNTPLHEEQLADSLSTFDISNISQSSDTNGPYISNTMDSNSNVSTDINSPENLIQIKIADLGNACWYDEHYTNSIQTREYRSPEVLLGAPWGCGADIWSTACLIFELITGDFLFEPDEGHSYTKDDDHIAQIIELLGELPSYLLRNGKYTRTFFNSRGLLRNISKLKFWPLEDVLTEKYKFSKDEAKEISDFLSPMLQLDPRKRADAGGLVNHPWLKDTLGMEEIRVPDRELYGSGSDIPGWFEEVRDHKRH
B4: YNL098C (protein, UniProt P01120 2-319, looked up)
Ras-like protein 2: PLNKSNIREYKLVVVGGGGVGKSALTIQLTQSHFVDEYDPTIEDSYRKQVVIDDEVSILDILDTAGQEEYSAMREQYMRNGEGFLLVYSITSKSSLDELMTYYQQILRVKDTDYVPIVVVGNKSDLENEKQVSYQDGLNMAKQMNAPFLETSAKQAINVEEAFYTLARLVRDEGGKYNKTLTENDNSKQTSQDTKGSGANSVPRNSGGHRKMSNAANGKNVNSSTTVVNARNASIESKTGLAGNQATNGKTQTDRTNIDNSTGQAGQANAQSANTVNNRVNNNSKAGQVSNAKQARKQQAAPGGNTSEASKSGSGGCC
B5: YBR130C (protein, UniProt P38272 1-425, looked up)
SWI5-dependent HO expression …: MSDQDNTQTSSSKLAPHHNIFMANLESSPTKDRNTSSQNASSSRVIESLHDQIDMLTKTNLQLTTQSQNLLSKLELAQSKESKLLENLNLLKNENENLNSIFERKNKKLKELEKDYSELSNRYNEQKEKMDQLSKLAKNSSAIEQSCSEKLQNMEVNYNSLLESQNLYRDHYSDEISKLNEKIGLLELELSNQNLNYGSDTSSNSDIELNLNKFNDSVKDLKSLETEKDSKLSKIITHSLDELNLQSWLNLYQTNENLISTFAEKMDLKDVLKRNDEKISNKGAVVQTLKKNVQTQVESNNADALSSNNAQDMLPIKMVKLRKTPNTNDSSSNGNSSNNKRRSFYTASPLLSSGSIPKSASPVLPGVKRTASVRKPSSSSSKTNVTHNNDPSTSPTISVPPGVTRTVSSTHKKKGNSMVVHGAQS
B6: YNL094W (protein, UniProt P53933 1-587, looked up)
Phosphatidate phosphatase APP1: MNSQGYDESSSSTAATSGPTSGDPRMGKKQRFMNLIRTTKDVYIPNLTSSISQKTMDGIRSTTNSFEGYNDLPMELPHNTTITYFPTYTTTNLVDPDGLSAPRKDFETTVRCAVSYPGNPTSRRNRWLLSLCKQYLRTGTAEADVAPVVPPHLEEDSGDLNDSQSSIESSLSSKSENRYSHMGIQEEDVLNERIQGFLSKKVPNTPVVVDLLPKDKLRGDTASFFGTTDSYGNLLIKAETDFLPSKINITLDTPIEGHADPISETFPANYVSPYGIGLISDIDDTIKHTGVTGDRRSMFRNVFIHDVQSWVIDGVPLWYKTLHDVADVDFFYVSNSPIQTFTLLKQYICANFPPGPIFLKQYSGNFFSTIMTSSANRKIQPIANILKDFPKKKFILVGDSGEHDLEAYTTTALQFPNQILAIYIRCCSNSMSDVPSHDEEVMNEVNNIIELQQRPMQMTKSTVRTRRRPPPPPIPSTQKPSLTEEQTESIRMSRRNKDENNAKRVAPPPLPNRQLPNLDANTYYVPSSQNDYGMYGAFMDKKADEWKRRVMDSIQKLSNQDTTLMFFSDPALSLEDSIRRIREKYSN
B7: YJL155C (protein, UniProt P32604 1-452, looked up)
Fructose-2,6-bisphosphatase: MGYSTISNDNDIKVCVIMVGLPARGKSFISQKIIRYLSWLSIKAKCFNVGNYRRDVSGNVPMDAEFFNFENTDNFKLRELAAQNAIKDIVNFFTKEDGSVAVFDATNSTRKRRKWLKDICEKNNIQPMFLESWSNDHELIINNAKDIGSTSPDYENSEPHVAEADFLERIRQYERFYEPLDPQKDKDMTFIKLVNIIEEVVINKIRTYLESRIVFYVMNIRPKPKYIWLSRHGESIYNVEKKIGGDSSLSERGFQYAKKLEQLVKESAGEINLTVWTSTLKRTQQTANYLPYKKLQWKALDELDAGVCDGMTYEEIEKEYPEDFKARDNDKYEYRYRGGESYRDVVIRLEPVIMELERQENVLIITHQAVLRCIYAYFMNVPQEESPWMSIPLHTLIKLEPRAYGTKVTKIKANIPAVSTYKEKGTSQVGELSQSSTKLHQLLNDSPLEDKF
B8: YNL255C (protein, UniProt P53849 1-153, looked up)
Zinc finger protein GIS2: MSQKACYVCGKIGHLAEDCDSERLCYNCNKPGHVQTDCTMPRTVEFKQCYNCGETGHVRSECTVQRCFNCNQTGHISRECPEPKKTSRFSKVSCYKCGGPNHMAKDCMKEDGISGLKCYTCGQAGHMSRDCQNDRLCYNCNETGHISKDCPKA
B9: YNL020C (protein, UniProt P53974 1-638, looked up)
Actin-regulating kinase 1: MNQPQIGTYNVGTQLTVGSHQVEIIKYLTSGGFAQVYSALINPPDPHSNSSVACLKRVIVPDKPSLNTLRAEVDAMRLLKNNRYVVSYIDSHAAKAMLHNGSYEVFVLMEYCERGGLIDFMNTRLQNRLHEFEILQIMSQVTQGVAAMHALQPPLIHRDIKIENVLISANNEYKLCDFGSVCGIIRPPRNSQELSYVQQDILKNTTAQYRSPEMIDTFRGLPIDEKSDIWALGIFLYKLCYYTTPFEKGGDLAILSGKFEFPLYPNYSEQLKGLIRDILVQDPRHRPNVYQLLKRISIMQNVPCPINDIQVVQAPSSHLNLTELHQLSATQNILSLNSPTTMENTMPNATFQISMADNTTTAQMHPNRKPSQIAYDASFSNSAKGSQPLFDKSQNMYHALDPPLVEPLASSVSNNDNELKANSATKLKQAIVSEAHTFRQNNSIDFPLQNIIPQYEDSSSSSDESYSGDVDELKKTRSLGSYSTRGNIKKNQSVKESLTSSSLPGTSFTPTSTKVNLKHENSPFKSTFVNTIDNSKDDLNKPSYEDLDVSKQNLKNSIQQRMIDKLNSSEESFNARKMSKVKLHEKGEIDKPTMLKSSGPISKDKKTKPTPPPKPSHLKPKPPPKPLLLAGRKLSLDK
B10: YLR330W (protein, UniProt Q12114 1-671, looked up)
Chitin biosynthesis protein …: MSSVDVLLTVGKLDASLALLTTQDHHVIEFPTVLLPENVKAGSIIKMQVSQNLEEEKKQRNHFKSIQAKILEKYGTHKPESPVLKIVNVTQTSCVLAWDPLKLGSAKLKSLILYRKGIRSMVIPNPFKVTTTKISGLSVDTPYEFQLKLITTSGTLWSEKVILRTHKMTDMSGITVCLGPLDPLKEISDLQISQCLSHIGARPLQRHVAIDTTHFVCNDLDNEESNEELIRAKHNNIPIVRPEWVRACEVEKRIVGVRGFYLDADQSILKNYTFPPVNEEELSYSKENEPVAEVADENKMPEDTTDVEQVASPNDNESNPSEAKEQGEKSGHETAPVSPVEDPLHASTALENETTIETVNPSVRSLKSEPVGTPNIEENKADSSAEAVVEEPNEAVAESSPNEEATGQKSEDTDTHSNEQADNGFVQTEEVAENNITTESAGENNEPADDAAMEFGRPEAEIETPEVNESIEDANEPAEDSNEPVEDSNKPVKDSNKPVEDSNKPVEDSNKPVEDSNKPVEDANEPVEDTSEPVEDAGEPVQETNEFTTDIASPRHQEEDIELEAEPKDATESVAVEPSNEDVKPEEKGSEAEDDINNVSKEAASGESTTHQKTEASASLESSAVTEEQETTEAEVNTDDVLSTKEAKKNTGNSNSNKKKNKKNKKKGKKK
B11: YJR083C (protein, UniProt P47129 1-309, looked up)
Assembly-complementing factor …: MSEDQRVISQPIELHKLSIVDKHSQGQQQQPHQKQHEVQPESKSPRVTTPLKPKRLAIPISSPQRSTTNQSPVSDHASPISTDQDLIYKLAAKHREINELSFKLEVAQKELKQLELQFKDTLPRNGQQKLGNQNPSEYLSTFTKRIQQTFVDVNNSPNMLKGKKSINDFFSKPNNNVNSNINNTLPNRKPNPPPNRSQRMQNIAPSRSSESTPTSGPPLLPPRNTMKNANTTATAGENTPFLQRILNKFNQMNMEEDEFDDLLEKRKSKKDHYYIKENLGYEYDEVRSEDEDDEEFEPMGDIPVHLFKR

What follows are molecules tested on ABP1 (assay: DHFR-PCA on solid medium, bait ABP1 (Fig. 1B)). Conditions: bait ABP1, label = prey; 2-4 replicates.
Type: cell-based, Saccharomyces cerevisiae
From the text: Supplement 41467_2021_21873_MOESM8_ESM.xlsx, sheet "Fig1B" | column: medsize; medrep; Ratio; Score
With B1 the “medrep (log2 median colony size normalized to plate background, PCA score)” value was 1.414. In the case of B2, the “medrep (log2 median colony size normalized to plate background, PCA score)” value is reported as 3.262. With B3 the “medrep (log2 median colony size normalized to plate background, PCA score)” value was 1.64. In the case of B4, the “medrep (log2 median colony size normalized to plate background, PCA score)” value is reported as 3.322. With B5 the “medrep (log2 median colony size normalized to plate background, PCA score)” value was 2.63. B6 was tested, and the “medrep (log2 median colony size normalized to plate background, PCA score)” value was 1.857. With B7 the “medrep (log2 median colony size normalized to plate background, PCA score)” value was 1.596. In the case of B8, the “medrep (log2 median colony size normalized to plate background, PCA score)” value is reported as 2.801. For B9, the “medrep (log2 median colony size normalized to plate background, PCA score)” value was 4.233. In the case of B10, the “medrep (log2 median colony size normalized to plate background, PCA score)” value is reported as 3.386. With B11 the “medrep (log2 median colony size normalized to plate background, PCA score)” value was 1.804.

Same assay, conditions: bait ABP1, label = prey; only significant differences showed; PPIs completely lost have a ratio of 0.1 and the gained PPIs 2.5
B1 was tested, and the “Ratio (SH3-deleted/WT medrep)” value was 0.1. B2 was tested, and the “Ratio (SH3-deleted/WT medrep)” value was 0.1. For B6, the “Ratio (SH3-deleted/WT medrep)” value was 0.1. B11 was tested, and the “Ratio (SH3-deleted/WT medrep)” value was 0.1.
